Kd data for 1 molecule are collected here from patent publication US20240301086A1 (APTEVO RESEARCH AND DEVELOPMENT, published 2024).

For orientation: Kd means the concentration at which binding is half-saturated.

In one test the target is T1, mIgG Fc-human PSMA ECD (human).
T1 construct: Called PSMA dimer in the SPR method; also called mFc-Hu PSMA ECD; murine Fc-tagged human PSMA ECD
In words: SPR (Biacore T200), bispecific amine-coupled, mFc-PSMA dimer 1-81 nM as analyte, 1:1 fit. On the procedure:
(§1) SPR studies were performed on a subset of bispecific constructs binding to Human and cynomolgus primate PSMA ectodomain (ECD) fused to the c-terminus of a murine IgG1 Fc region. These experiments were conducted at 25° C. in dPBS (Gibco, 14040-133) with 0.2% BSA buffer on a Biacore T200 system. Bispecific constructs were immobilized at a density of ˜2,000-4,000 response units (RU) onto individual flow cells of a CM5 research-grade sensor chip (GE) by standard amine coupling chemistry, leaving one flow cell surface unmodified as the reference. Using a multi-cycle kinetics mode, a buffer blank and […] different concentrations of the PSMA dimer ranging from 1 nM to 81 nM in dPBS with 0.2% BSA were sequentially injected through each flow cell at 30 μL/min for 300 seconds followed by a 600 second dissociation phase. Regeneration was achieved by injection of 10 mM glycine pH 2.0 at a flow rate of 30 μL/min for 40 seconds followed by dPBS with 0.2% BSA buffer stabilization for 1 min.
(§2) Sensorgrams obtained from kinetic SPR measurements were analyzed by the double subtraction method. The signal from the reference flow cell was subtracted from the analyte binding response obtained from flow cells with captured ligands. The buffer blank response was then subtracted from analyte binding responses and the final double-referenced data were analyzed with Biacore T200 Evaluation software (2.0, GE), globally fitting data to derive kinetic parameters. All sensorgrams were fitted using a simple one-to-one binding model.
Background: In SPR one partner is held on a chip, and binding of the other changes the refractive index at the surface.

The next test has as its target T2, mIgG Fc-cyno PSMA ECD (cynomolgus monkey).
T2 construct: Called PSMA dimer in the SPR method; also called mFc-Cyno PSMA ECD; murine Fc-tagged cyno PSMA ECD
T2 chain: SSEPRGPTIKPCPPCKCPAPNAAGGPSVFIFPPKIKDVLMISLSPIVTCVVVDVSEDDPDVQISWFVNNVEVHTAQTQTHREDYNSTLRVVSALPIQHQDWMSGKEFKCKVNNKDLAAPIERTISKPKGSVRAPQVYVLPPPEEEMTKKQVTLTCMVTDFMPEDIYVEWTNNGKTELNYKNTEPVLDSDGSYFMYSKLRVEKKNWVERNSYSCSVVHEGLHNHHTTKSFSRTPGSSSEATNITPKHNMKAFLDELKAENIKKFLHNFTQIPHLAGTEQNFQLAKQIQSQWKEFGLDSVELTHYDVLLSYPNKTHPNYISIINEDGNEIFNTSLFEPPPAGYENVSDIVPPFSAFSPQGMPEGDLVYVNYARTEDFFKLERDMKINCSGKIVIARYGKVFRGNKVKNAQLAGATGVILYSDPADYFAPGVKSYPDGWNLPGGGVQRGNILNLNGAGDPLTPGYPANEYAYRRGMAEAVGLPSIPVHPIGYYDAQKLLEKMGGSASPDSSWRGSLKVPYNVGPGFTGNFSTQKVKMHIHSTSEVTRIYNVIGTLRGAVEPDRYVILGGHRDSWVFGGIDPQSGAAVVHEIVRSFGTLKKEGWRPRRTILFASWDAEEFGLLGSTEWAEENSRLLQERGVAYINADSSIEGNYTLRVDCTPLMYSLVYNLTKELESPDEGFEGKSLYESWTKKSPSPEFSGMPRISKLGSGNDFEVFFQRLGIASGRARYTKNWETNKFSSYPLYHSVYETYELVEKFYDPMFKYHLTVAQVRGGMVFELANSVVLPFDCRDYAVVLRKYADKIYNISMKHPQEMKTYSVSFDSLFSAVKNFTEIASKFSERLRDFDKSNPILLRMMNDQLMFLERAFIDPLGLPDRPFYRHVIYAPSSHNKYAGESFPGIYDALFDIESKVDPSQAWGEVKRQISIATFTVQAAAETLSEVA
The description is as above. On the procedure:
as §1, §2

B1: PSMA01107 Anti-PSMA scFv x Fc x linker x Anti CD3 scFv; Anti PSMA scFv x Fc (bispecific antibody)
chain 1: QVQLVQSGAEVKKPGASVKVSCKASGYTFTDYYMHWVRQAPGQGLEWMGYFNPYNDYTRYAQKFQGRVTMTRDTSTSTVYMELSSLRSEDTAVYYCARSDGYYDAMDYWGQGTTVTVSSGGGGSGGGGSGGGGSGGGGSDIQMTQSPSSLSASVGDRVTITCRASKSISKYLAWYQQKPGKAPKLLIHSGSSLESGVPSRFSGSGSGTEFTLTISSLQPDDFATYYCQQHIEYPWTFGQGTKVEIKEPKSSDKTHTCPPCPAPPAAAPSVFLFPPKPKDTLMISRTPEVTCVVVDVSHEDPEVKFNWYVDGVEVHNAKTKPREEQYNSTYRVVSVLTVLHQDWLNGKEYKCAVSNKALPAPIEKTISKAKGQPREPQVYTLPPSRDELTKNQVSLWCLVKGFYPSDIAVEWESNGQPENNYKTTPPVLDSDGSFFLYSKLTVDKSRWQQGNVFSCSVMHEALHNHYTQKSLSLSPGGGGSPSQVQLVQSGAEVKKPGASVKVSCKASGYTFTRSTMHWVRQAPGQGLEWIGYINPSSAYTNYAQKFQGRVTLTADKSTSTAYMELSSLRSEDTAVYYCASPQVHYDYNGFPYWGQGTLVTVSSGGGGSGGGGSGGGGSGGGGSDIQMTQSPSSLSASVGDRVTITCRASSSVSYMNWYQQKPGKAPKRWIYDSSKLASGVPSRFSGSGSGTDFTLTISSLQPEDFATYYCQQWSRNPPTFGQGTKVEIKRS
chain 2: QVQLVQSGAEVKKPGASVKVSCKASGYTFTDYYMHWVRQAPGQGLEWMGYFNPYNDYTRYAQKFQGRVTMTRDTSTSTVYMELSSLRSEDTAVYYCARSDGYYDAMDYWGQGTTVTVSSGGGGSGGGGSGGGGSGGGGSDIQMTQSPSSLSASVGDRVTITCRASKSISKYLAWYQQKPGKAPKLLIHSGSSLESGVPSRFSGSGSGTEFTLTISSLQPDDFATYYCQQHIEYPWTFGQGTKVEIKEPKSSDKTHTCPPCPAPPAAAPSVFLFPPKPKDTLMISRTPEVTCVVVDVSHEDPEVKFNWYVDGVEVHNAKTKPREEQYNSTYRVVSVLTVLHQDWLNGKEYKCAVSNKALPAPIEKTISKAKGQPREPQVYTLPPSRDELTKNQVSLSCAVKGFYPSDIAVEWESNGQPENNYKTTPPVLDSDGSFFLVSKLTVDKSRWQQGNVFSCSVMHEALHNHYTQKSLSLSPG
notes: Heterodimer, bivalent for PSMA and monovalent for CD3 (VH-VL scFv at the C-terminus); also called PSMA1107
As to B1, the dissociation constant Kd in the test with mIgG Fc-human PSMA ECD amounted to 3 nM; in the test with mIgG Fc-cyno PSMA ECD it was 4.4 nM.
